This assay addresses UNC-45 (C. elegans), full-length recombinant protein (C. elegans). The experiment in a line: ITC. On the technique in general: ITC needs no label: the signal is the heat of the interaction.

These results are taken from article PMC3549490.

Take AGGPTIEEVD [Hsp70 (HSP-1) C-terminal peptide …]: the equilibrium dissociation constant (Kd) was determined as 120 µM.
To EDASRMEEVD [Hsp90 (DAF-21) C-terminal peptide …] belongs 14 µM.

As usually defined, the Kd is the free concentration of one partner at which half of the binding sites on the other are occupied at equilibrium, for simple one-to-one binding.
